Assay [1] has as its target T1, NPHP1-SH3 (15N-labelled SH3 domain of nephrocystin-1 for NMR and ITC) (human, UniProt O15259 147-212).
T1 construct: Nephrocystin-1 (NPHP1), human, SH3 domain, codons 147-212, expressed from pGEX-2T; 15N isotope label for NMR; also called 15N NPHP1-SH3
T1 sequence (looked up): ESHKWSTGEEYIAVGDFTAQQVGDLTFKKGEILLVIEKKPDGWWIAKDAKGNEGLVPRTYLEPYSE
As to the kind of experiment: NMR titration; 1H-15N HSQC of 15N NPHP1-SH3 (0.3 mM) with added peptide (0, 0.5, 1, 1.5, 2, 3, 4 equivalents for peptPP2); fast exchange. As to conditions: both partners purified.

For assay [2], the target named is T2, NPHP1-SH3 (15N-labelled SH3 domain of nephrocystin-1 for NMR and ITC) (Homo sapiens (Human), UniProt O15259).
T2 chain: T1 sequence (looked up)
As to the kind of experiment: NMR titration (1H-15N HSQC).

B1: peptPP2 (peptide)
peptide: Ac-GLRPALPSRLARAS-NH2
notes: stretch of the PC-1 C-tail containing PP2 (P4267ALPSR4272), aminoacids 4264-4277; also called PP2 peptide; source: synthetic peptide, bought: CASLO (Lyngby, Denmark)
Consider B1, for which, in assay [1], the Kd (commonly a measure of binding affinity in units of concentration) amounted to 300 ± 20 µM.

Take Ac-RGSKVSPDVPPPS-NH2 (protein) [peptPP1]: the binding result in assay [2] was “no binding”.
